Experimental data from US7220569.

Biological target: T1, Factor X analogue with the furin cleavage site Arg-Arg-Lys-Arg/Ile (rFX^RRKR/I)
T1 chain 1: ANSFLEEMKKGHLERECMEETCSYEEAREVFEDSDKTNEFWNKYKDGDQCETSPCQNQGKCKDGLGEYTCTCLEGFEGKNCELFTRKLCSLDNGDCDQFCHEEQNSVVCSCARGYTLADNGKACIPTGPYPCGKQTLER
T1 chain 2: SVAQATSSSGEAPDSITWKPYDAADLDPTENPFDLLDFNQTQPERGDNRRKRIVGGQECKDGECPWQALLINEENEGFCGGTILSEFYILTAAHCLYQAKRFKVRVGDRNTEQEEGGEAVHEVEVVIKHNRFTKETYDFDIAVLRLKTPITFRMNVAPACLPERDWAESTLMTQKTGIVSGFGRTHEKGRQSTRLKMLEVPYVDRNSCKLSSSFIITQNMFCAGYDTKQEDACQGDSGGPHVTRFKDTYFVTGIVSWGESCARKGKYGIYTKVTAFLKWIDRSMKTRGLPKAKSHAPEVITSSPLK

B1: rfurin deltaCys-spacer-10xHis (purified r-furin derivative) (protein)
chain: DVYQEPTDPKFPQQWYLSGVTQRDLNVKAAWAQGYTGHGIVVSILDDGIEKNHPDLAGNYDPGASFDVNDQDPDPQPRYTQMNDNRHGTRCAGEVAAVANNGVCGVGVAYNARIGGVRMLDGEVTDAVEARSLGLNPNHIHIYSASWGPEDDGKTVDGPARLAEEAFFRGVSQGRGGLGSIFVWASGNGGREHDSCNCDGYTNSIYTLSISSATQFGNVPWYSEACSSTLATTYSSGNQNEKQIVTTDLRQKCTESHTGTSASAPLAAGIIALTLEANKNLTWRDMQHLVVQTSKPAHLNANDWATNGVGRKVSHSYGYGLLDAGAMVALAQNWTTVAPQRKCIIDILTEPKDIGKRLEVRKTVTACLGEPNHITRLEHAQARLTLSYNRRGDLAIHLVSPMGTRSTLLAARPHDYSADGFNDWAFMTTHSWDEDPSGEWVLEIENTSEANNYGTLTKFTLVLYGTAPEG
FXa activity (mU/ml), chromogenic substrate S2337, incubation 0 hours: < 25 mU/ml | FXa activity (mU/ml), chromogenic substrate S2337, incubation 6 hours: 56 mU/ml | FXa activity (mU/ml), chromogenic substrate S2337, incubation 24 hours: 101 mU/ml | FXa activity (mU/ml), chromogenic substrate S2337, incubation 48 hours: 124 mU/ml | FXa activity (mU/ml), chromogenic substrate S2337, incubation 72 hours: 133 mU/ml | conversion of the heavy chain to the activated form after 72 hours at 37 C (Western blot): about 50% of the starting material (HC) have been converted to the activated form | specific activity (mU/µg), incubation 0 hours: 0 mU/µg | specific activity (mU/µg), incubation 6 hours: 80 mU/µg | specific activity (mU/µg), incubation 24 hours: 144 mU/µg | specific activity (mU/µg), incubation 48 hours: 177 mU/µg | specific activity (mU/µg), incubation 72 hours: 190 mU/µg
